B1: HDV Ribozyme (parent)
chain: GGCCGGCAUGGUCCCAGCCUCCUCGCUGGCGCCGGCUGGGCAACAUUCCGAGGGGACCGUCCCCUCGGUAAUGGCGAAUGGGACCCA

Variants of: B1
Experiment: self-cleavage, relative activity (ratio to wild type); higher = more cleavage; co-transcriptional

| Variant | self-cleavage |
| --- | --- |
| A56G C57G | 0.8 |
| A56G C57A | 0.847 |
| C58G C64A | 0.855 |
| G59C U69C | 1.23 |
| C57G A83G | 0.917 |
| C57G U65G | 0.85 |
| C57U C61A | 1.32 |
| A56C U72G | 0.383 |
| C57G A87U | 0.861 |
| A56U G80U | 0.237 |
| A56U G80A | 0.358 |
| A56U G80C | 0.22 |
| G59U G68A | 0.88 |
| G59U G68U | 1 |
| G55C C64A | 0.855 |
| G55C C75A | 0.148 |
| G55C C75U | 0.0361 |
| G55U G67A | 0.881 |
| C57G G74C | 0.446 |
| U60A C61G | 1.19 |
| A56U U72A | 0.764 |
| G59A C84U | 0.73 |
| G59U A87G | 0.993 |
| C58G G74U | 0.511 |

| Variant | self-cleavage |
| --- | --- |
| A56U A71G | 0.762 |
| A56U A71U | 0.864 |
| G55U G80C | 0.175 |
| G55U G80U | 0.21 |
| A56G C64G | 0.791 |
| G55C U69A | 0.973 |
| C57A G73A | 0.708 |
| C57A G73C | 0.523 |
| G59A A77C | 0.475 |
| C58G C85G | 0.95 |
| C58G C85U | 0.956 |
| G59C G73A | 0.779 |
| C58G G67U | 0.892 |
| C58G G67C | 0.739 |
| A56C A87G | 0.846 |
| C58G G82U | 0.534 |
| C58G G80C | 0.147 |
| C58G G80A | 0.332 |
| A56C U65A | 0.955 |
| G55U A77C | 0.353 |
| A56C C58U | 1.07 |
| G55U C86G | 1.03 |
| A56G C58G | 0.911 |
| A56U U69C | 0.733 |

| Variant | self-cleavage |
| --- | --- |
| C58U C84G | 0.665 |
| G55U G82A | 0.467 |
| C57A U69G | 0.675 |
| U60A C64A | 0.878 |
| U60A C64G | 0.954 |
| C58U U65G | 0.964 |
| C58U U65C | 1.03 |
| A56C G82A | 0.684 |
| A56C G82U | 0.404 |
| G55U U72A | 0.648 |
| C58A C61U | 0.972 |
| C58A C61G | 1.03 |
| A56G U65A | 0.867 |
| A56G U65G | 0.957 |
| C58G A70U | 0.929 |
| C58G A70G | 1.03 |
| C57U C85G | 0.984 |
| A56C C57A | 1.22 |
| A56C C57G | 0.978 |
| A56C A77C | 0.482 |
| G59A G80A | 0.305 |
| G59A G80U | 0.179 |
| G59U A77G | 0.847 |
| C57U A78C | 0.312 |

| Variant | self-cleavage |
| --- | --- |
| G55C U65C | 0.867 |
| G55C U65A | 0.88 |
| C57A C61A | 1.05 |
| A56C G81A | 0.415 |
| A56C G81C | 0.266 |
| A56U G74C | 0.317 |
| G59U G76A | 0.925 |
| C57G G80C | 0.125 |
| C58G U79C | 0.366 |
| C57U G73U | 0.338 |
| C57U G73C | 0.748 |
| C57G C58U | 1.07 |
| A56U G68C | 0.872 |
| C57A G76A | 1.18 |
| C57A G76C | 1.05 |
| G55U U79G | 0.591 |
| C57A A83C | 0.684 |
| G55C G68A | 0.967 |
| G59U C84A | 0.863 |
| G59U G81U | 0.433 |
| U60A A71U | 1.03 |
| U60A A71G | 1.12 |
| A56C G76A | 1.17 |
| A56C G76C | 1.06 |

| Variant | self-cleavage |
| --- | --- |
| A56C C84G | 0.755 |
| C58G A87U | 0.897 |
| A56C G68C | 0.486 |
| G55C C66G | 1.2 |
| G55C C66U | 0.983 |
| U60A A77U | 0.453 |
| U60A A77G | 1.14 |
| G55C U79C | 0.513 |
| G59A U72G | 0.637 |
| G59A U72A | 0.698 |
| C58U A71G | 1.08 |
| C58U A71C | 0.85 |
| A56G C63A | 0.831 |
| G59U C75G | 0.123 |
| G59C C62A | 0.87 |
| A56G G73A | 0.749 |
| A56U A83G | 0.876 |
| C58G C62A | 0.796 |
| U60A C62G | 0.997 |
| A56U A87G | 1.02 |
| C58G U60C | 1.2 |
| G55C C63G | 0.888 |
| C57U A71G | 1.12 |
| G55C G76U | 1.06 |

| Variant | self-cleavage |
| --- | --- |
| G55C G76A | 1.18 |
| G55U U65C | 0.73 |
| G55C U72G | 0.449 |
| G55C U72A | 0.743 |
| A56U C66U | 0.923 |
| G55U C61A | 1.09 |
| A56G A77U | 0.739 |
| C57A G68C | 1.06 |
| G55U A56C | 0.944 |
| A56U U60C | 1.13 |
| A56G A71G | 0.918 |
| A56G A71U | 0.957 |
| A56C G74C | 0.312 |
| G59C A83U | 0.469 |
| G59C A83C | 0.514 |
| C57U G74U | 0.548 |
| C57A C86G | 0.89 |
| A56G U79G | 0.65 |
| C57G C66U | 0.848 |
| C57G C66A | 0.923 |
| G59A A70C | 0.982 |
| C58G A78C | 0.102 |
| C57A A77C | 0.314 |
| C57A A77U | 0.486 |

| Variant | self-cleavage |
| --- | --- |
| C58A G74U | 0.554 |
| C58A G74A | 0.426 |
| G59C C84G | 0.831 |
| G55U C63A | 0.783 |
| G59C A71U | 1.06 |
| C58G A71C | 0.802 |
| C57G C61U | 0.967 |
| C57U C58G | 0.762 |
| A56C C85A | 0.806 |
| A56C C85G | 1.04 |
| A56C C85U | 1.01 |
| A56U C75U | 0.237 |
| C57U C86A | 0.882 |
| C57U U60A | 1.07 |
| A56C U60C | 0.98 |
| C57G C63A | 0.956 |
| A56G G80A | 0.32 |
| A56G G80C | 0.259 |
| G59A G68A | 0.968 |
| A56C U79C | 0.379 |
| A56C G59C | 1.05 |
| C57G A78G | 0.629 |
| C57A C64U | 1 |
